In the supplement of paper PMC7877785:
± gives the uncertainty stated by the source.

Assay: self-splicing fitness, log relative to wild type (ln ratio); higher = more splicing; Tetrahymena group I intron in knt gene, E. coli kanamycin selection, DiMSum; sequences stand for … in CUCUCU…GGAGGGAAAAGUUAUCAGGCAUGCACCUGGUAGCUAGUCUUUAAACCAAUAGAUUGCAUCGGUUUAAAAGGCAAGACCGUCAAAUUGCGGGAAAGGGGUCAACAGCCGUUCAGUACCAAGUCUCAGGGGAAACUUUGAGAUGGCCUUGCAAAGGGUAUGGUAAUAAGCUGACGGACAUGGUCCUAACCACGCAGCCAAGUCCUAAGUCAACAGAUCUUCUGUUGAUAUGGAUGCAGUUCACAGACUAAAUGUCGGUCGGGGAAGAUGUAUUCUUCUCAUAAGAUAUAGUCGGACCUCUCCUUAAUGGGAGCUAGCGGAUGAAGUGAUGCAACACUGGAGCCGCUGGGAACUAAUUUGUAUGCGAAAGUAUAUUGAUUAGUUUUGGAGUACUCGUGGUCG
Procedure, shortened: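 Fitness was computed with DiMSum as the error-weighted combination of replicate fold changes, kanamycin versus none, each normalised to wild type. The library randomised all eight intron nucleotides of the P1ex region, with the intron placed in the knt kanamycin-resistance gene on pET-22b(+) in E. coli BL21(DE3). Six replicate transformations were grown overnight at 37°C or 30°C on LB agar with or without 25 μg/mL kanamycin, plus 100 μg/mL carbenicillin, 50 μM IPTG and 0.2% rhamnose. Pooled colonies were amplicon-sequenced on an Illumina HiSeq 2500.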

Sequence | self-splicing fitness (ln) (30 °C) | self-splicing fitness (ln) (37 °C)
UACAAGCAAUAUUACGGCGC | -1.51 ± 0.085 | -0.801 ± 0.099
ACGAAGCAAUAUUACGGCAA | -1.04 ± 0.13 | -0.678 ± 0.13
UAACAGCAAUAUUACGCGUC | -4.61 ± 0.34 | -2.7 ± 0.18
GUGUAGCAAUAUUACGGGCC | -1.6 ± 0.23 | -1.85 ± 0.48
GGCGAGCAAUAUUACGCGGG | – | -2.89 ± 0.38
CGAGAGCAAUAUUACGUGGU | – | -3.2 ± 0.37
UAAGAGCAAUAUUACGUAGU | -3.21 ± 0.19 | -2.32 ± 0.26
ACAAAGCAAUAUUACGAUAU | -2.1 ± 0.088 | -1.15 ± 0.1
UCAUAGCAAUAUUACGUUUU | -2.81 ± 0.14 | -1.29 ± 0.14
ACUGAGCAAUAUUACGUCGG | -2.82 ± 0.16 | -2.47 ± 0.21
AAGUAGCAAUAUUACGCGUA | -2.15 ± 0.13 | -1.29 ± 0.14
UGUCAGCAAUAUUACGGAGU | -3.6 ± 0.17 | -1.96 ± 0.15
CAACAGCAAUAUUACGUGUA | -2.41 ± 0.076 | -1.76 ± 0.075
GCGUAGCAAUAUUACGAUUU | 0.253 ± 0.088 | -0.282 ± 0.09
UGCUAGCAAUAUUACGCGGA | -2.16 ± 0.12 | -1.24 ± 0.12
UGGAAGCAAUAUUACGGGCA | -0.216 ± 0.083 | -0.335 ± 0.087
AGUUAGCAAUAUUACGGUUC | -3.52 ± 0.28 | -2.11 ± 0.27
GGGCAGCAAUAUUACGAUCA | -1.56 ± 0.13 | -0.598 ± 0.15
ACUGAGCAAUAUUACGUGAU | -3.6 ± 0.14 | -1.76 ± 0.097
GUAGAGCAAUAUUACGGAUG | -3.96 ± 0.43 | -2.08 ± 0.36
UCCCAGCAAUAUUACGGAGG | -3.51 ± 0.14 | -2.23 ± 0.18
UCCGAGCAAUAUUACGCUUC | – | -2.37 ± 0.35
UGCGAGCAAUAUUACGGUCU | -2.12 ± 0.15 | -1.45 ± 0.25
UAGGAGCAAUAUUACGGUAU | -2.93 ± 0.36 | -2.66 ± 0.3
UAAGAGCAAUAUUACGCCAC | -2.07 ± 0.22 | -1.59 ± 0.29

Sequence | self-splicing fitness (ln) (30 °C) | self-splicing fitness (ln) (37 °C)
CCUGAGCAAUAUUACGCCGC | -2.83 ± 0.5 | 0.153 ± 0.33
GGUUAGCAAUAUUACGGGCU | -3.26 ± 0.41 | -1.68 ± 0.32
GUGGAGCAAUAUUACGAUGU | -2.4 ± 0.23 | -0.928 ± 0.29
AGAGAGCAAUAUUACGAUUA | -2.43 ± 0.25 | -2.57 ± 0.32
CAACAGCAAUAUUACGGACC | -2.98 ± 0.27 | -0.864 ± 0.23
GAGGAGCAAUAUUACGACCA | -2.57 ± 0.4 | –
UCCUAGCAAUAUUACGUGAA | -0.777 ± 0.078 | -0.552 ± 0.1
CGUAAGCAAUAUUACGUUGC | -2.73 ± 0.22 | -1.81 ± 0.29
ACACAGCAAUAUUACGCGUU | -4.3 ± 0.16 | -2.29 ± 0.14
UAGUAGCAAUAUUACGCAAA | -3.4 ± 0.3 | -2.28 ± 0.2
CGCUAGCAAUAUUACGCGGA | -3.21 ± 0.17 | -1.73 ± 0.099
AACAAGCAAUAUUACGCGUC | -3.84 ± 0.2 | -2.66 ± 0.15
UGACAGCAAUAUUACGCUUA | -1.26 ± 0.088 | -0.0997 ± 0.094
GAAUAGCAAUAUUACGACAU | -0.389 ± 0.012 | 0.00512 ± 0.033
ACUCAGCAAUAUUACGGGAC | -2.72 ± 0.17 | -1.6 ± 0.23
AUAUAGCAAUAUUACGCAGC | -3.62 ± 0.43 | -1.92 ± 0.27
GUCUAGCAAUAUUACGACCA | -0.99 ± 0.26 | -2.1 ± 0.29
CGGAAGCAAUAUUACGGUCU | -1.38 ± 0.074 | -0.791 ± 0.099
CGAUAGCAAUAUUACGGACG | -1 ± 0.085 | -0.734 ± 0.11
CUAGAGCAAUAUUACGUUUC | -4.04 ± 0.31 | -2.01 ± 0.28
CCAUAGCAAUAUUACGGAGG | -3.57 ± 0.21 | -0.997 ± 0.15
GAACAGCAAUAUUACGCGGC | -4 ± 0.43 | -1.6 ± 0.23
CCUGAGCAAUAUUACGAAGA | -1.76 ± 0.18 | -1.69 ± 0.19
AAUAAGCAAUAUUACGCGAA | -1.74 ± 0.12 | -1.01 ± 0.12
GAGGAGCAAUAUUACGAUAA | -2.91 ± 0.26 | -1.35 ± 0.33

Sequence | self-splicing fitness (ln) (30 °C) | self-splicing fitness (ln) (37 °C)
GCGUAGCAAUAUUACGGCAA | 0.755 ± 0.46 | -1.01 ± 0.27
GCAUAGCAAUAUUACGUGGA | -3.06 ± 0.25 | -1.75 ± 0.17
ACCCAGCAAUAUUACGGGUA | -2.54 ± 0.11 | -1.66 ± 0.084
UACGAGCAAUAUUACGAGAU | -3.99 ± 0.46 | -2.99 ± 0.38
UAGCAGCAAUAUUACGGCGC | -2.08 ± 0.23 | 0.611 ± 0.23
CAGAAGCAAUAUUACGGACU | -2.88 ± 0.27 | -0.24 ± 0.31
CUGCAGCAAUAUUACGAGUG | -0.52 ± 0.053 | 0.112 ± 0.087
CGUAAGCAAUAUUACGCAGU | -3.05 ± 0.2 | -2.64 ± 0.34
UAUGAGCAAUAUUACGGUGA | -2.21 ± 0.16 | -3.36 ± 0.27
GAAUAGCAAUAUUACGCAGA | -2.53 ± 0.16 | -1.34 ± 0.14
UGGCAGCAAUAUUACGAGCC | -2.1 ± 0.29 | -2.37 ± 0.44
AAGAAGCAAUAUUACGGCAG | -1.35 ± 0.099 | -0.774 ± 0.12
GAUAAGCAAUAUUACGGUCA | -1.71 ± 0.12 | -0.711 ± 0.11
GAGGAGCAAUAUUACGCCCA | 0.0821 ± 0.26 | -0.507 ± 0.37
GGUGAGCAAUAUUACGUAAA | -2.79 ± 0.3 | -1.45 ± 0.31
AUGUAGCAAUAUUACGUUCU | -1.05 ± 0.082 | -0.469 ± 0.094
UAAAAGCAAUAUUACGCGUU | -2.85 ± 0.13 | -1.14 ± 0.13
ACUCAGCAAUAUUACGUAUG | -3.11 ± 0.24 | -1.35 ± 0.16
UUUUAGCAAUAUUACGCAAA | -1.98 ± 0.49 | -1.47 ± 0.36
GCCUAGCAAUAUUACGUGGA | -0.477 ± 0.068 | 0.358 ± 0.076
UGAAAGCAAUAUUACGGAGC | -3.81 ± 0.37 | -2.81 ± 0.26
CGUAAGCAAUAUUACGAGCC | – | -1.87 ± 0.22
AAGCAGCAAUAUUACGGCGU | -0.0119 ± 0.067 | 0.201 ± 0.079
ACACAGCAAUAUUACGUUUC | -3.61 ± 0.12 | -2.28 ± 0.14
UGAAAGCAAUAUUACGCGAA | -1.52 ± 0.17 | -1.05 ± 0.2

Sequence | self-splicing fitness (ln) (30 °C) | self-splicing fitness (ln) (37 °C)
AUUAAGCAAUAUUACGCGGU | -3.93 ± 0.47 | -3.09 ± 0.35
GCUCAGCAAUAUUACGUAAU | -0.739 ± 0.072 | 0.436 ± 0.092
UGCUAGCAAUAUUACGGAUC | – | -0.421 ± 0.19
GUCGAGCAAUAUUACGAACG | – | -1.02 ± 0.23
GCAUAGCAAUAUUACGACAA | -2.27 ± 0.19 | -0.595 ± 0.13
UUAUAGCAAUAUUACGCAUG | -1.67 ± 0.25 | -0.364 ± 0.23
GGGGAGCAAUAUUACGCGAG | -1.54 ± 0.43 | -0.692 ± 0.24
UCCGAGCAAUAUUACGUCCU | -2.6 ± 0.28 | –
CAUCAGCAAUAUUACGUGCG | -0.149 ± 0.056 | 0.355 ± 0.075
UACGAGCAAUAUUACGCCAA | -2.18 ± 0.41 | –
GAUAAGCAAUAUUACGGGCC | -1.48 ± 0.17 | -1.13 ± 0.18
UGAGAGCAAUAUUACGAUUU | -2.34 ± 0.17 | -2.26 ± 0.27
ACAAAGCAAUAUUACGUACG | -1.84 ± 0.068 | -0.615 ± 0.087
CACUAGCAAUAUUACGUGAA | -3.83 ± 0.15 | -3.05 ± 0.18
UGGAAGCAAUAUUACGCCAG | -1.55 ± 0.18 | 0.0553 ± 0.21
GAACAGCAAUAUUACGCUUC | -4.44 ± 0.19 | -3.19 ± 0.2
CUCUAGCAAUAUUACGAAGU | -3.44 ± 0.21 | -4.77 ± 0.23
GACCAGCAAUAUUACGUAAG | -1.55 ± 0.052 | -0.817 ± 0.076
GCCGAGCAAUAUUACGAUAC | – | -1.59 ± 0.35
AAUCAGCAAUAUUACGUCGC | -2.06 ± 0.17 | -1.24 ± 0.17
ACGUAGCAAUAUUACGCGAU | -3.01 ± 0.14 | -1.5 ± 0.11
CCUAAGCAAUAUUACGGGGA | -2.84 ± 0.15 | -1.92 ± 0.13
AAGUAGCAAUAUUACGGACU | -0.577 ± 0.11 | -0.212 ± 0.15
